Assay: yeast display, Sf9 membrane polyspecificity reagent, FACS + sequencing; frameworks hold sequencing errors
Procedure, shortened: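 Nanobodies came from a synthetic yeast display library in Saccharomyces cerevisiae BJ5465, induced with galactose for 36–48 hours and stained for 1 hour at 4 °C with 10% biotinylated, detergent-solubilized Sf9 membrane reagent. Cells were enriched on streptavidin microbeads and then FACS-sorted, with low and high (top ~1%) gates set on anti-HA fluorescence for expression and streptavidin fluorescence for reagent binding. Each polyreactivity label reflects the gate a clone came from. Genes were amplified by colony PCR, sequenced by MiSeq 2 × 250 and filtered by CDR length.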

QVQLVESGGGLVQAGGSLRLSCAASGRIFRVNAMGWYRQAPGKERELVARIDSGGRTNYADSVKGRFTISRDNAKNTVYLQMTSLKPEDTAVYYCARVFSLARSWYRYYYWGQGTQVTVSS
polyreactivity (PSR sort gate): high polyreactivity

QVQLVESGGGLVQAGGSLRLSCAASGRIFRVYALGWSRQAPGKERELVAAITSGGSTYYADSVKGRFTISRDNAKNTVYLQMNSLKPEDSAVYYCAAKRFRYRPGDYWGQGTQVTVSS
polyreactivity (PSR sort gate): high polyreactivity

QVQLVESGGGLVQAGGSLRLSCAASGRIFRVYAMGWSRQAPGKERELVASITRTGGGTYYADSVKGRFTNSRDNAKNTVYLQMNRLKPEDPAVYYCAADAFIPGYQLHYHWGQGTQVTVSS
polyreactivity (PSR sort gate): low polyreactivity

QVQLVESGGGLVQAGGSLRLSCAASGRIFRVYAMGWYRPAPGKERELVATIRRGSSTYYADSVKGRFTISRDNAKNTVYLQMNSLKPEDTAVYYCADRSSRRGPISEGDYWGQGTQVTVSS
polyreactivity (PSR sort gate): high polyreactivity

QVQLVESGGGLVQAGGSLRLSCAASGRIFRVYAMGWYRQAPGKERELVAAISSSGGSTYYADSVKGRFTISRDNAKNTVYLQMNSLKPEDTAVYYCAAGGLHTIQRPGYYYWGLGTQVTVSS
polyreactivity (PSR sort gate): low polyreactivity

QVQLVESGGGLVQAGGSLRLSCAASGRIFRVYAMGWYRQAPGKERELVAAISWSGGRTYYADSVKGRFTISRDNAKNTVYLQMNSLKPEDTAVYYCAAERGGPTYYSGGDYDYWGQGTQVTVSS
polyreactivity (PSR sort gate): high polyreactivity

QVQLVESGGGLVQAGGSLRLSCAASGRIFRWYAMGWYRQAPGKERELVATISSSGRTNYADSVKGRFTISRDNAKNTVYLQMNSLKPEDTAVYYCNADGGDWFGYVGMDYWGQGTQVTVSS
polyreactivity (PSR sort gate): high polyreactivity

QVQLVESGGGLVQAGGSLRLSCAASGRIFRWYAMGWYRQAPGKERELVATISSTGGSTYYADSVKGRFTISRDNAKNTDYLQMNSLKPEDTAVYDCNAVVYGIFLYAWYDYWGQGTQVTVSS
polyreactivity (PSR sort gate): low polyreactivity

QVQLVESGGGLVQAGGSLRLSCAASGRIFRYNALGWYRQAPGKERELVAAITWNGASTFYADSVKGRFTISRDNAKNTVYLQMNSLKPEDTAVYYCATVRDISGYLYWSYNLYDYWGQGTQVTVSS
polyreactivity (PSR sort gate): high polyreactivity

QVQLVESGGGLVQAGGSLRLSCAASGRIFRYNAMGWYRPAPGKERELVAAIRFSGGSTYYADSVKGRFTISRDHAKNTVYLQMNSLKPEDTAVYDCAKVYFRVQSGMDYWGQGTQVTVSS
polyreactivity (PSR sort gate): low polyreactivity

QVQLVESGGGLVQAGGSLRLSCAASGRIFRYNAMGWYRQAPGKERELVAAISYRTGSTHYADSVKGRFTISRDNAKNTVYLQMNILKPEDTAVYYCAYVPGYCYWGQGTQVTVSS
polyreactivity (PSR sort gate): low polyreactivity

QVQLVESGGGLVQAGGSLRLSCAASGRIFRYNAMGWYRQAPGKERELVATISWSGGRTYYADSVKGRFTISRDNAKNTVYLQMNSLKPEDNAVYYCAAYSYRGFGEYDYWGQGTQVTVSS
polyreactivity (PSR sort gate): high polyreactivity

QVQLVESGGGLVQAGGSLRLSCAASGRIFRYYAMGGYRQAPGKERELVATISRSGGSTFYAYSVKGRFTISRDNAKNTVYLQMNSLKPEDTAVYYCNARYQTGGYGYWGQGTQVTVSS
polyreactivity (PSR sort gate): high polyreactivity

QVQLVESGGGLVQAGGSLRLSCAASGRIFRYYAMGWYRQAPGKERELVAAISGGGGTYYADSVKGRFTISRDNATNTVYLQMNSLKPEDTAVYYCNAETYDYWFGYDYWGQGTQVTVSS
polyreactivity (PSR sort gate): high polyreactivity

QVQLVESGGGLVQAGGSLRLSCAASGRIFRYYAMGWYRQAPGKERELVAAISGSGGSTYYADSVKGRFTISRDNAKNTVYLQMNSLKPEDTAVYYCNARYRIPSGEGDHWGQGTQVTVSS
polyreactivity (PSR sort gate): low polyreactivity

QVQLVESGGGLVQAGGSLRLSCAASGRIFRYYAMGWYRQAPGKERELVAAISYSGGRTYYADSVKGRFTISRDNAKNTVYLQMNSLKPEDTAVYYCNARARSRKFYYWGQGTQVTVSS
polyreactivity (PSR sort gate): high polyreactivity

QVQLVESGGGLVQAGGSLRLSCAASGRIFRYYAMGWYRQAPGKERELVAAITSSGSNTYYADSVKGRFTISRDNAKNTVYLQMNSLKPEDTAVYYCNARWRLVSSGFDGGYWGQGTQVTVSS
polyreactivity (PSR sort gate): high polyreactivity

QVQLVESGGGLVQAGGSLRLSCAASGRIFRYYAMGWYRQAPGKERELVASITRRGGSTYYADSVKGRFTISRDNAKNTVYLQMNSLKPEDTAVYYCAADTYYNLGNYWGQGTQVTVSS
polyreactivity (PSR sort gate): high polyreactivity

QVQLVESGGGLVQAGGSLRLSCAASGRIFRYYAMGWYRQAPGKERELVASITSGARTSYADSVKGRFTISRDNAKNTVYLQMNSLKPEDTAVYYCAPGYSYSPGRMGYWGQGTQVTVSS
polyreactivity (PSR sort gate): high polyreactivity

QVQLVESGGGLVQAGGSLRLSCAASGRIFRYYAMGWYRQAPGKERELVATISGRGGSTYYADSVKGRFTISRDNAKNTVYLQMNSLKPEDTAVYYCNTVSTRYIYDYWGQGTQVTVSS
polyreactivity (PSR sort gate): high polyreactivity

QVQLVESGGGLVQAGGSLRLSCAASGRIFRYYAMGWYRQAPGQERELVAAITWSGGSTYYADSVKGRFTISRDNAKNTVYLQMNSLKPEDTAVYYCNAKSYQPFHGDYWGQGTQVTVSS
polyreactivity (PSR sort gate): low polyreactivity

QVQLVESGGGLVQAGGSLRLSCAASGRIFRYYAMGWYRQAPVKDRELVARINIGGSTYYADSVKGRFTISRDNAKNTVYLKMNSLLREDTAVYYCAAVPRPVSRTIWGDYWGEGTQVTVSS
polyreactivity (PSR sort gate): high polyreactivity

QVQLVESGGGLVQAGGSLRLSCAASGRIFRYYMRWYRQAPGKERKLVAVISSGGRTKYADSVKGRFTISRDNAKNTVYLQMNILKPQDTAVYYCAARYPREAAYVFDYWGQGTLVTVSS
polyreactivity (PSR sort gate): high polyreactivity

QVQLVESGGGLVQAGGSLRLSCAASGRIFRYYTMGWYRQAPGKERELVAAITSSSGSTYYADSVKGRFTISRDNAKNTVYLQMNSLKPEDTAVYYCNAVRYTTQTPKVDYGYWGQGTQVTVSS
polyreactivity (PSR sort gate): high polyreactivity

QVQLVESGGGLVQAGGSLRLSCAASGRIFRYYTMGWYRQAPGKERELVATITSDGRTNYADSVKGRFTISRDNAKNTVYLQMNSLKPEDTALYYCAAVYHRSYSLQSYGYWGQGTQVTVSS
polyreactivity (PSR sort gate): high polyreactivity

QVQLVESGGGLVQAGGSLRLSCAASGRIFRYYTMGWYRQEPGKERELVAAITGSGGSTYYADSVKGRFTISRDNAKTTVYLQMNSLKPEDTAVYYCAARGYLDMGYWGQGTQVTVSS
polyreactivity (PSR sort gate): high polyreactivity

QVQLVESGGGLVQAGGSLRLSCAASGRIFSAYAMGWYRPAPGKERELVAAISKRGGRTYYADSVKGRFTISRDNAKNTVYLQMNSLKPEDTAVYYCNKRYHDGHELDYWGQGTQVTVSS
polyreactivity (PSR sort gate): high polyreactivity

QVQLVESGGGLVQAGGSLRLSCAASGRIFSAYAMGWYRQAPGKERELVAVISSADSTNYADSVKGRFTITRDNAKNTVYLQINSLKPEDNAVYYCNARGKHRYGFRSHVGNEYWGQGTQVTVSS
polyreactivity (PSR sort gate): low polyreactivity

QVQLVESGGGLVQAGGSLRLSCAASGRIFSAYVMGWNRQAPGKERELVAAISSGGTRTSYADSVKGRFTISRDNAKNTVYLQMNSLTPEDTAVYYCAAARFYRSAYGYWGQGTQVTVSS
polyreactivity (PSR sort gate): high polyreactivity

QVQLVESGGGLVQAGGSLRLSCAASGRIFSAYVMGWYRQAPGKERELVAAISSGGSRTSYADSVKGRFTISRDNAKNTVYLQMNSLKPEDTAVYYCAAARFYRSAYGYWGQGTQVTVSS
polyreactivity (PSR sort gate): high polyreactivity

QVQLVESGGGLVQAGGSLRLSCAASGRIFSDYAMGWSSQAPGKERELVATITSGDSTNYADSVKGRFTISRDHAKNTVYLQMNSLKPEDTAVYYCNADRFADYDYWGQGTQVTVSS
polyreactivity (PSR sort gate): low polyreactivity

QVQLVESGGGLVQAGGSLRLSCAASGRIFSEYAMGWYRQAPGKERELVAAISKSGGRTYYADSVKGRFTISRDNAKNTVYLKMNSLKPEDTAVYYCNARAVYPAGYAYDYWGQGTQVTVSS
polyreactivity (PSR sort gate): high polyreactivity

From the nanobody polyreactivity screen of Harvey et al. (2022)
